Results from patent publication US20240066131A1 (Protagonist Therapeutics, Inc., priority 2020, published 2024).
Read-outs that look alike come from different tables or passages of the source. Positions of bridges follow the written chain, without caps; N, C: chain ends. Non-standard residues stand in square brackets, D forms with d. Residues, ends and D or L forms follow the SMILES beside them. Groups on a side chain read outwards from the residue. *: point of attachment. PEG12 = NCCOCCOCCOCCOCCOCCOCCOCCOCCOCCOCCOCCOCCC(=O)O; C18 diacid = O=C(O)CCCCCCCCCCCCCCCCC(=O)*; Dip = N[C@H](C(=O)O)C(c1ccccc1)c1ccccc1; Palmitoyl = CCCCCCCCCCCCCCCC(=O)*; Myristoyl = CCCCCCCCCCCCCC(=O)*; β3hF = N[C@H](CC(=O)O)Cc1ccccc1; Isovaleryl = CC(C)CC(=O)*; Abu = CC[C@H](N)C(=O)O; Dap = NC[C@H](N)C(=O)O; AEEA = NCCOCCOCC(=O)O; Ahx = NCCCCCC(=O)O

T1: ferroportin (Homo sapiens, UniProt Q9NP59)
T1 sequence (Q9NP59 1-571): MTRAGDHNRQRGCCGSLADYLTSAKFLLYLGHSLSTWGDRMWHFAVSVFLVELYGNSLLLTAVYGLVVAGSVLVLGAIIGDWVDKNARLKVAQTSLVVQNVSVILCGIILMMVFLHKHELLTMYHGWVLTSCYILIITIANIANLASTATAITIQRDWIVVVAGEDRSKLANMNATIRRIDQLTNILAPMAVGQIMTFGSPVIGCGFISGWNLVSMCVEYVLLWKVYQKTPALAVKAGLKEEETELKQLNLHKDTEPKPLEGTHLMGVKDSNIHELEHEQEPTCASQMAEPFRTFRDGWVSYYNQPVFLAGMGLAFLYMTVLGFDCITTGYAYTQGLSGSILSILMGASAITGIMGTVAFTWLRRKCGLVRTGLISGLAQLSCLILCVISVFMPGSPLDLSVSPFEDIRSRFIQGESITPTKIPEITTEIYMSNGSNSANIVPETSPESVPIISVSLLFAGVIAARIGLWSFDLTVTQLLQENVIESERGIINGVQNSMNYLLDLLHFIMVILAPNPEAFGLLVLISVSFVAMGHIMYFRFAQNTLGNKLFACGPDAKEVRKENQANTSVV

T2: ferroportin endogenously expressed on T47D cells (HTB 133, ATCC) (human, UniProt Q9NP59 1-571)
T2 sequence (looked up): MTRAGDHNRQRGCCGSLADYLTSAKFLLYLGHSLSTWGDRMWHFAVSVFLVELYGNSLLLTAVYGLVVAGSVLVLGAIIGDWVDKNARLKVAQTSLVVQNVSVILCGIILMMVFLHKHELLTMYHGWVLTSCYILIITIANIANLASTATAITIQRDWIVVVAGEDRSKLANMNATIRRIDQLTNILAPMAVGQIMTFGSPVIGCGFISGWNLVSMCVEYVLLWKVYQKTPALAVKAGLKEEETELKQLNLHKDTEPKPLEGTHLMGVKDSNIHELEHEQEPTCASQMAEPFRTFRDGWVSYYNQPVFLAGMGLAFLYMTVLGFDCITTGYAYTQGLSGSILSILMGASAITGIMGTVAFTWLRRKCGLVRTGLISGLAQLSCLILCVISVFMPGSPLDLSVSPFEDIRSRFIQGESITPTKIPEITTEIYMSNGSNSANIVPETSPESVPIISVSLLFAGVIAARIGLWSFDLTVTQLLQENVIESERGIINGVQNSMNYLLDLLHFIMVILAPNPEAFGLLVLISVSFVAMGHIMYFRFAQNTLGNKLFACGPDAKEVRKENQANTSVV


Legend:
[1] = biological target: T1, ferroportin; assay: FPN activity assay: internalization/degradation of ferroportin-GFP in stably transfected HEK293 cells (loss of GFP fluorescence); type: cell-based
Method: Following internalization, the ferroporin protein is degraded.
A retro inverse peptide is a peptide with a reversed sequence in all D amino acids. An example is that Hy-Glu-Thr-His-NH2 becomes Hy-DHis-DThr-DGlu-NH2. The EC50 of these reference compounds for ferroportin internalization/degradation was determined according to the FPN activity assay described above. These peptides served as control standards.

[2] = biological target: T2, ferroportin endogenously expressed on …; assay: cell-based or functional assay
[3] = ferroportin-GFP HEK293 cells, compound incubated at least 18 hours, read-out: FPN IC50

| T47D MSA IC50 [2] | Molecule | other results |
| --- | --- | --- |
| 24.4 nM | XETHXPXX (N-term Isovaleric Acid; Dpa4; Lys(Ahx_Palm)6; C-term N_Ethyl_Nap) [Isovaleric Acid-E-T-H-[Dpa]-P-[Lys(Ahx_Palm)]-N_Ethyl_Nap] |  |
| 10.1 nM | XETHXPXX (N-term Butyric_Acid; Dpa4; Lys(Ahx_Palm)6; C-term N_Butyl_Phe) [Butyric_Acid-E-T-H-[Dpa]-P-[Lys(Ahx_Palm)]-N_Butyl_Phe] |  |
| 15.3 nM | XETHXPXX (N-term Isovaleric Acid; Dpa4; Lys(Ahx_Palm)6; C-term N_Propyl_Phe) [Isovaleric Acid-E-T-H-[Dpa]-P-[Lys(Ahx_Palm)]-N_Propyl_Phe] |  |
| 179 nM | XETHXPXX (N-term Isovaleric Acid; Dpa4; Lys(IsoGlu_Palm)6; C-term N_Butyl_Phe) [Isovaleric Acid-E-T-H-[Dpa]-P-[Lys(IsoGlu_Palm-N_Butyl_Phe] |  |

More lines, now with the values behind:

| Molecule | T47D MSA IC50 [2] | other results |
| --- | --- | --- |
| CC[C@H](C)[C@H](NC(=O)[C@H](C)NC(=O)[C@@H]1CCCN1C(=O)[C@@H](NC(=O)[C@H](Cc1c[nH]cn1)NC(=O)[C@@H](NC(=O)[C@H](CCCCNC(=O)COCCOCCNC(=O)COCCOCCNC(=O)CCCCCNC(=O)CCCCCCCCCCCCCCCCC(=O)O)NC(C)=O)[C@@H](C)O)C(c1ccccc1)c1ccccc1)C(=O)N[C@H](CCCCN)C(=O)N[C@H](CC(N)=O)Cc1ccccc1 [compound 234] (Ac-K([AEEA-AEEA-Ahx-C18 diacid])TH[Dip]PAI[dK][β3hF]-NH2) |  | DC50 [1, 3]: > 3000 nM |
| CCCCCCCCCCCCCC(=O)NCCCCCC(=O)NCCCC[C@H](NC(=O)[C@@H](NC(=O)[C@H](C)NC(=O)[C@@H]1CCCN1C(=O)[C@H](Cc1ccccc1)NC(=O)[C@H](Cc1c[nH]cn1)NC(=O)[C@@H](NC(=O)[C@H](CCC(=O)O)NC(=O)CC(C)C)[C@@H](C)O)[C@@H](C)CC)C(=O)N[C@@H](Cc1ccccc1)C(=O)N[C@@H](CCC(=O)O)C(=O)N1CCC[C@H]1C(=O)N[C@@H](CCCNC(=N)N)C(=O)N[C@H](CO)C(N)=O [compound 247] (Isovaleryl-ETHFPAIK([Ahx-Myristoyl])FEPR[dS]-NH2) |  | DC50 [1, 3]: 1160 nM |
| CCCCCCCCCCCCCCCC(=O)NCCCCCC(=O)NCCCC[C@H](NC(=O)C[C@H](Cc1ccccc1)NC(=O)[C@@H](CCCCN)NC(=O)[C@@H](NC(=O)[C@H](CO)NC(=O)[C@@H]1CCCN1C(=O)[C@@H](NC(=O)[C@H](Cc1c[nH]cn1)NC(=O)[C@@H](NC(=O)[C@H](CCC(=O)O)NC(=O)CC(C)C)[C@@H](C)O)C(c1ccccc1)c1ccccc1)[C@@H](C)CC)C(N)=O [compound 20] (Isovaleryl-ETH[Dip]PSI[dK][β3hF]K([Ahx-Palmitoyl])-NH2) |  | DC50 ([1]; Table 6A, read-out: FPN EC50): 46.3 nM |
| Isovaleryl-[Dap]TH[Dip]PAID[β3hF]K([Ahx-Palmitoyl])R-NH2 (lactam 1-8; SMILES CCCCCCCCCCCCCCCC(=O)NCCCCCC(=O)NCCCC[C@H](NC(=O)C[C@H](Cc1ccccc1)NC(=O)[C@@H]1CC(=O)NC[C@H](NC(=O)CC(C)C)C(=O)N[C@@H]([C@@H](C)O)C(=O)N[C@@H](Cc2c[nH]cn2)C(=O)N[C@@H](C(c2ccccc2)c2ccccc2)C(=O)N2CCC[C@H]2C(=O)N[C@@H](C)C(=O)N[C@@H]([C@@H](C)CC)C(=O)N1)C(=O)N[C@@H](CCCNC(=N)N)C(N)=O) [Isovaleric Acid-Dap-T-H-[Dpa]-P-A-I-D-[bhPhe]-[Lys(Ahx_Palm)]-R-NH2] | 733 nM |  |
| Isovaleryl-ETH[Dip]PIK[β3hF]K([Ahx-Palmitoyl])-NH2 (lactam 1-7 (inferred)) [Isovaleric Acid-E-T-H-[Dpa]-P-I-K-[bhPhe]-[Lys(Ahx_Palm)]-NH2] | 25.5 nM |  |
| Isovaleryl-ETH[Dip]P[Abu]IK([PEG12-C18 diacid])[β3hF][dK]C-NH2 (thioether 6-11) [Isovaleric Acid-E-T-H-[Dpa]-P-Abu-I-[Lys(PEG12_C18_Diacid)]-[bhPhe]-[(D)Lys]-[Cys]-NH2] | 388 nM |  |
| Isovaleryl-KTH[Dip]PIE[β3hF]K([Ahx-Palmitoyl])-NH2 (lactam 1-7; SMILES CCCCCCCCCCCCCCCC(=O)NCCCCCC(=O)NCCCC[C@H](NC(=O)C[C@H](Cc1ccccc1)NC(=O)[C@@H]1CCC(=O)NCCCC[C@H](NC(=O)CC(C)C)C(=O)N[C@@H]([C@@H](C)O)C(=O)N[C@@H](Cc2c[nH]cn2)C(=O)N[C@@H](C(c2ccccc2)c2ccccc2)C(=O)N2CCC[C@H]2C(=O)N[C@@H]([C@@H](C)CC)C(=O)N1)C(N)=O) [Isovaleric Acid-K-T-H-[Dpa]-P-I-E-[bhPhe]-[Lys(Ahx_Palm)]-NH2] | 996 nM |  |
| XXTHXPAIEXXR (N-term Isovaleric Acid; Orn1; Dpa4; bhPhe9; Lys(Ahx_Palm)10; C-term NH2; cyclized Orn-E (lactam)) [Isovaleric Acid-Orn-T-H-[Dpa]-P-A-I-E-[bhPhe]-[Lys(Ahx_Palm)]-R-NH2] | 5.77 nM |  |
| Isovaleryl-ETH[Dip]PAIK([AEEA-AEEA-Ahx-C18 diacid])[β3hF]-NH2 (SMILES CC[C@H](C)[C@H](NC(=O)[C@H](C)NC(=O)[C@@H]1CCCN1C(=O)[C@@H](NC(=O)[C@H](Cc1c[nH]cn1)NC(=O)[C@@H](NC(=O)[C@H](CCC(=O)O)NC(=O)CC(C)C)[C@@H](C)O)C(c1ccccc1)c1ccccc1)C(=O)N[C@@H](CCCCNC(=O)COCCOCCNC(=O)COCCOCCNC(=O)CCCCCNC(=O)CCCCCCCCCCCCCCCCC(=O)O)C(=O)N[C@H](CC(N)=O)Cc1ccccc1) [Isovaleric Acid-E-T-H-[Dpa]-P-A-I-[Lys(1Peg2_1Peg2_Ahx_C18_Diacid)]-[bhPhe]-NH2] | 143 nM |  |
